# In article PMC6853222:
# Key:
# [1] = biological target: GII.11 porNoV VA34 P protein (GII.11 porcine norovirus VA34); assay: crystal structure; VA34 P protein, native; hanging drop vapor diffusion, 100 mM Tris pH 8.0, 16% PEG 3350, 6% tacsimate pH 8.0, 20 °C
# [2] = biological target: GII.3 huNoV TV24 P protein (GII.3 human norovirus TV24); assay: crystal structure; TV24 P protein, native and with A tetrasaccharide; hanging drop vapor diffusion, 9.6% PEG 3350, 160 mM ammonium citrate tribasic pH 7.0, 20 mM tri-sodium citrate pH 5.6, 500 mM 1,6-hexanediol, 20 °C; homodimers in the asymmetric unit
substance,measurement,setting,value
GII.11 porNoV VA34 P protein (domain or fragment),stoichiometry N,[1],2
GII.3 huNoV TV24 P protein (domain or fragment),stoichiometry N,[2],2
